Patent US9018171B2, “Uses of an immunomodulatory protein (GMI) from Ganoderma microsporum” (Mycomagic Biotechnology Co., Ltd., priority 2010, dated 2015)
“Also recorded” adds a separate entry of the source. Like-named read-outs stand apart in the source and are kept apart here.

Columns and labels:
[1] = test system: U251; experiment: NCI60 in vitro screening, CNS Cancer; format: cell-based; conditions: U251, one dose
[2] = test system: COLO 205; experiment: NCI60 in vitro screening, Colon Cancer; format: cell-based
[3] = test system: SK-OV-3; experiment: NCI60 in vitro screening, Ovarian Cancer; format: cell-based
[4] = test system: OVCAR-8; experiment: NCI60 in vitro screening, Ovarian Cancer; format: cell-based
[5] = test system: OVCAR-4; experiment: NCI60 in vitro screening, Ovarian Cancer; format: cell-based
[6] = test system: MDA-MB-435; experiment: NCI60 in vitro screening, Melanoma; format: cell-based
[7] = test system: Akt; experiment: Western blotting, EGF-induced phosphorylation; format: cell-based, human; conditions: A549 cells, pretreated 8 h, EGF 10 minutes
Procedure: (§1) A549 cells (5×10^5 cells/60 mm) were pretreated with various concentrations of GMI (4, 16 μg/ml) or AG1478 (EGFR inhibitors) for 8 hours prior to incubation for 10 minutes with EGF (as indicated). Cell lysates were subject to immunoblotting with phospho-specific EGFR (Y1068) (A and B), anti-phospho-AKT (A), anti-AKT (A), anti-phospho-GSK3β (A) or anti-phospho-STAT3 antibodies (B). Protein loading was determined by Western blotting against β-actin (A and B).
(§2) Total cell lysates were prepared in RIPA buffer (100 μl in 60 mm in dish). Fifty μg of lysate were loaded onto an 8% polyacrylamide gel and analyzed by SDS gel electrophoresis. After transfer to PVDF (Amersham), blots were blocked with 5% skim milk in TBS (10 mM Tris-CL pH7.5, 150 mM NaCl) containing 0.2% Tween-20. Blots were probed with antibodies (at their recommended dilutions) in 5% skim milk in TBS overnight at 4° C. Following detection with the appropriate horseradish-peroxidase conjugated secondary antibody (Cell Signaling), blots were developed by enhanced chemiluminescence according to the manufacturer's directions (Perkin Elmer Life Sciences). All experiments were performed in duplicate.
(§3) To assess whether GMI mediates and/or inhibits phosphorylation of Akt and Stat3, the invention investigated the effect of GMI on the phosphorylation status of Akt and Stat3 in A549 cells treated with various concentrations of GMI for 8 h.

[8] = test system: Stat3; experiment: Western blotting, EGF-induced phosphorylation; format: cell-based, human; conditions: A549 cells, pretreated 8 h, EGF 10 minutes
Procedure: as §1, §2, §3

[9] = test system: EGFR; experiment: Western blotting, EGF-induced phosphorylation; format: cell-based, human; conditions: A549 cells, pretreated 8 h, EGF 10 minutes
Procedure: as §1, §2, §3

[10] = test system: HL-60(TB); format: cell-based
[11] = test system: 786-0; experiment: NCI60 in vitro screening, Renal Cancer; format: cell-based
[12] = test system: Cdc42; experiment: Rac1 and Cdc42 activity assay (pull-down); format: cell-based, human; conditions: A549 cells, GMI 4, 16 μg/ml 24 h, 10 ng/mL EGF 3 min
Procedure: (§4) A549 cells were seeded onto 100 mm plates and cultured to around 80% confluence. The cells were then treated with various doses of GMI (4, 16 μg/ml). […] A549 cells were pretreated with various concentrations of GMI for 24 h before being stimulated with 10 ng/mL EGF for 3 min. After that, cells were washed with cold PBS and lysated on the dish in RIPA buffer. Active GTP-bound Rac1 or Cdc42 was pulled down using the GST-PBD fusion protein of PAK1 immobilized on glutathione beads and active Rac1 and Cdc42 were detected with anti-Rac1 and anti-Cdc42 antibodies.
(§5) Active Rac1 and Cdc42 were determined by pull-down assay (Binker et al., 2009, Biochem Biophys Res Commun, 379, 445-450). Serum-starved A549 cells were or were not stimulated for 3 min with EGF and then collected in 800 μl of ice-cold lysis-buffer. Lysates were centrifuged to remove cellular debris. From each supernatant, 5 μl were taken out to measure protein content using Protein Assay Kit (Bio-Rad, Hercules, Calif.). Twenty μl were removed to determine total Rac1 in total lysate, and the remaining volume was used for the pull-down assay. Lysates containing equal amounts of proteins were then mixed with 15 μg of GST-PAK-PBD-beads (Pierce). Samples for total Rac1 and Cdc42 in total lysate and the pelleted beads were diluted in Laemmli sample-buffer and boiled. The proteins were separated using SDS-PAGE (12% gel). […]

[13] = test system: Rac1; experiment: Rac1 and Cdc42 activity assay (pull-down); format: cell-based, human; conditions: A549 cells, GMI 4, 16 μg/ml 24 h, 10 ng/mL EGF 3 min
Procedure: as §4, §5

[14] = test system: MALME-3M; experiment: NCI60 in vitro screening, Melanoma; format: cell-based

B1: GMI: immunomodulatory protein from Ganoderma microsporum, amino acid sequence SEQ ID NO: 3, manufactured by Mycomagic Biotechnology Co., Ltd. (protein, listed as Ganoderma microsporum)
chain: MSDTALIFTLAWNVKQLAFDYTPNWGRGRPSSFIDTVTFPTVLTDKAYTYRVVVSGKDLGVRPSYAVESDGSQKINFLEYNSGYGIADTNTIQVYVIDPDTGNNFIVAQWN
Growth Percent [1]: 69.04% | TGI ([2]; COLO 205): >1.25E2 | Percent Growth ([2]; COLO 205, Log10 Concentration 0.1): 100% | Percent Growth ([2]; COLO 205, Log10 Concentration 1.1): 95% | Percent Growth ([2]; COLO 205, Log10 Concentration 2.1): 95% | Percent Growth ([2]; COLO 205, Log10 Concentration −0.9): 98% | Percent Growth ([2]; COLO 205, Log10 Concentration −1.9): 95% | Growth Percent ([2]; COLO 205, one dose): 105.56% | TGI ([3]; SK-OV-3): >1.25E2 | Percent Growth ([3]; SK-OV-3, Log10 Concentration 0.1): 107% | Percent Growth ([3]; SK-OV-3, Log10 Concentration 1.1): 94% | Percent Growth ([3]; SK-OV-3, Log10 Concentration 2.1): 55% | Percent Growth ([3]; SK-OV-3, Log10 Concentration −0.9): 103% | Percent Growth ([3]; SK-OV-3, Log10 Concentration −1.9): 103% | Growth Percent ([3]; SK-OV-3, one dose): 89.18% | TGI ([4]; OVCAR-8): >1.25E2 | Percent Growth ([4]; OVCAR-8, Log10 Concentration 0.1): 99% | Percent Growth ([4]; OVCAR-8, Log10 Concentration 1.1): 91% | Percent Growth ([4]; OVCAR-8, Log10 Concentration 2.1): 31% | Percent Growth ([4]; OVCAR-8, Log10 Concentration −0.9): 95% | Percent Growth ([4]; OVCAR-8, Log10 Concentration −1.9): 98% | Growth Percent ([4]; OVCAR-8, one dose): 76.68% | GI50 ([4]; OVCAR-8, in µg/mL): 6.00E1 | TGI ([5]; OVCAR-4): >1.25E2 | Percent Growth ([5]; OVCAR-4, Log10 Concentration 0.1): 102% | Percent Growth ([5]; OVCAR-4, Log10 Concentration 1.1): 107% | Percent Growth ([5]; OVCAR-4, Log10 Concentration 2.1): 62% | Percent Growth ([5]; OVCAR-4, Log10 Concentration −0.9): 102% | Percent Growth ([5]; OVCAR-4, Log10 Concentration −1.9): 103% | Growth Percent ([5]; OVCAR-4, one dose): 98.08% | TGI ([6]; MDA-MB-435): >1.25E2 | Percent Growth ([6]; MDA-MB-435, Log10 Concentration 0.1): 91% | Percent Growth ([6]; MDA-MB-435, Log10 Concentration 1.1): 85% | Percent Growth ([6]; MDA-MB-435, Log10 Concentration 2.1): 3% | Percent Growth ([6]; MDA-MB-435, Log10 Concentration −0.9): 96% | Percent Growth ([6]; MDA-MB-435, Log10 Concentration −1.9): 101% | Growth Percent ([6]; MDA-MB-435, one dose): 79.29% | GI50 ([6]; MDA-MB-435, in µg/mL): 3.34E1 | EGF-induced activation (phosphorylation) of Akt [7]: significantly inhibits | EGF-induced activation (phosphorylation) of Stat3 [8]: little effect | EGF-induced activation (phosphorylation) of EGFR [9]: significantly inhibits | TGI [10]: >1.25E2 | Percent Growth ([10]; Log10 Concentration 0.1): 105% | Percent Growth ([10]; Log10 Concentration 1.1): 105% | Percent Growth ([10]; Log10 Concentration 2.1): 92% | Percent Growth ([10]; Log10 Concentration −0.9): 99% | Percent Growth ([10]; Log10 Concentration −1.9): 100% | Growth Percent ([10]; one dose): 116.48% | TGI ([11]; 786-0): >1.25E2 | Percent Growth ([11]; 786-0, Log10 Concentration 0.1): 111% | Percent Growth ([11]; 786-0, Log10 Concentration 1.1): 73% | Percent Growth ([11]; 786-0, Log10 Concentration 2.1): 4% | Percent Growth ([11]; 786-0, Log10 Concentration −0.9): 99% | Percent Growth ([11]; 786-0, Log10 Concentration −1.9): 100% | Growth Percent ([11]; 786-0, one dose): 74.75% | GI50 ([11]; 786-0, in µg/mL): 2.70E1 | EGF-promoted Cdc42 activity [12]: inhibits Cdc42 activation; also recorded: reduced EGF-promoted Cdc42 activity in a dose-dependent manner | EGF-promoted Rac1 activity [13]: little effect on Rac1; also recorded: little reduction in Rac1 activity | TGI [14]: >1.25E2 | Percent Growth ([14]; Log10 Concentration 0.1): 118% | Percent Growth ([14]; Log10 Concentration 1.1): 114% | Percent Growth ([14]; Log10 Concentration 2.1): 74% | Percent Growth ([14]; Log10 Concentration −0.9): 102% | Percent Growth ([14]; Log10 Concentration −1.9): 100% | Growth Percent ([14]; one dose): 114.17%
